Assay results published in US20040071656A1, “Modulation of heat-shock-protein-based immunotherapies” (priority 2001, published 2004).

What was measured:
[1] = target: T1, human CD40 (Homo sapiens, UniProt P25942); assay: Uptake of peptide C-FITC in HEK293T-CD40 cells, confocal microscopy; format: cell-based; details: 0.5 μM protein, 5 μM peptide C-FITC, ADP, 30 min 0° C. then 15 min 37° C.
T1 construct: CD40 full-length cDNA was cloned by PCR; expressed in transfected cells
Protocol: For experiments to study uptake of Hsp70/peptide C-FITC complex, HEK293T-CD40 and HEK293T-MCAT cells were seeded on collagen-coated cover slips 24 h prior to the experiment. For complex formation Hsp70, its N-terminal domain (N70) or its C-terminal domain (C70) were preincubated with a 10-fold molar excess of peptide C-FITC for 30 min at 37° C., as described above for the biotinylated proteins. HEK293T-CD40 and HEK293T-MCAT were incubated with 0.5 μM of Hsp70, N70 or C70, preincubated with 2 mM ADP and 5 μM peptide C-FITC, or 5 μM peptide C-FITC alone for 30 min on ice. Thereafter the cells were washed three times with medium, incubated for 15 min at 37° C., and fixed, embedded in Fluoromount-G and analyzed by confocal microscopy (LSM 510, Zeiss).
Next, the binding of Hsp70-peptide complex to CD40 was studied, which results in the uptake of peptide. To this end, HEK293T-CD40 cells and HE293T-MCAT cells (not expressing CD40) were incubated with a fluorescent (FITC) derivative of peptide C for 30 min at 0° C. in the presence of ADP, with or without Hsp70 or its two domains. After removal of excess material, the cells were incubated at 37° C. for 15 min, fixed and then analyzed by fluorescence microscopy. […] (FIG. 6B, panel 1). […] Neither did HEK293T-MCAT control cells give rise to a signal under any of the conditions tested (not shown). We conclude that the specific interaction of CD40 with Hsp70-peptide complex mediates the uptake of peptide.
Details for FIG. 6. Binding of Hsp70 complex to CD40-expressing HEK293T cells induces signaling via p38 and causes peptide uptake. A. HEK293T-cells, stably transfected with cDNA encoding human CD40 or the unrelated membrane protein murine cationic amino acid transporter (MCAT) were incubated for 20 min at 37° C. with CD40L or with Hsp70, C70, N70, bacterial DnaK either in the presence of ADP or AMPPNP, or buffer alone. Thereafter cells were washed, solubilized in SDS-sample buffer, and analyzed by immunoblotting with antibodies directed against phosphorylated (active) p38. Blots were also developed with an antibody against tubulin in order to control for equal loading. B. Cells were incubated at 0° C. for 30 min with recombinant human Hsp70, N70, or C70, all in the presence FITC-labeled peptide, or with the FITC-labeled peptide alone. Thereafter cells were washed, incubated for 15 min at 37° C., and processed for fluorescence microscopy. Upper left panel: Hsp70, upper right panel: FITC-labeled peptide alone, lower left panel: C70, lower right panel: N70. Only cells stably transfected with CD40 are shown. Cell boundaries are emphasized with broken lines.

[2] = target: T1, human CD40; assay: P38 kinase assay in HEK293T-CD40 cells; format: cell-based; details: for phosphorylated p38 in HEK293T-CD40 cells: 100 nM, 20 min at 37° C., ADP and peptide C
Protocol: P38 Kinase Assay. Twenty-four h prior to P38 kinase assays HEK293T-CD40 and HEK293T-MCAT cells were seeded into a 24-well plate coated with collagen and incubated with 100 nM CD40L (Alexis), HSP70, N70-domain, C70-domain, or DnaK for 20 min at 37° C. DnaK, Hsp70, N70 and C70 were preincubated with either 2 mM ADP and 30 μM peptide C or 40 μM AMPPNP (Sigma). Upon stimulation cells were washed twice with ice-cold PBS, and lysed in SDS-sample buffer. Equal amounts of protein were analyzed by immunoblotting with antibodies directed against phosphorylated P38 (Promega), and with a monoclonal anti-tubulin antibody (J. Wehland, Braunschweig, Germany).
Binding of Hsp70-peptide complex to CD40 results in intracellular signaling and peptide uptake. Binding of CD40 ligand to CD40 induces signal transduction via phosphorylation of p38, a component of the signal cascade between activated CD40 and NF-kappaB, which eventually results in the release of TNF-alpha and subsequent secretion of interferon-gamma (Pullen et al., 1999). Binding of the C-terminal domain of DnaK to CD40 was reported to have a similar effect (Wang et al., 2001, idem). We therefore investigated whether binding of human Hsp70-peptide complex to CD40 also stimulates this signaling pathway. These experiments were carried out in HEK293T cells stably transfected with human CD40 cDNA. After incubation with either Hsp70-peptide complex, recombinant Hsp70 domains, or DnaK, in the presence of ADP or the non-hydrolysable ATP analogue AMPPNP, cells were lysed, and lysates analyzed by immunoblotting with an antibody directed against active (i.e., phosphorylated) p38.
Details for FIG. 6. Binding of Hsp70 complex to CD40-expressing HEK293T cells induces signaling via p38 and causes peptide uptake. […] Thereafter cells were washed, solubilized in SDS-sample buffer, and analyzed by immunoblotting with antibodies directed against phosphorylated (active) p38. […] Thereafter cells were washed, incubated for 15 min at 37° C., and processed for fluorescence microscopy. […]

T1 sequence (P25942 21-277): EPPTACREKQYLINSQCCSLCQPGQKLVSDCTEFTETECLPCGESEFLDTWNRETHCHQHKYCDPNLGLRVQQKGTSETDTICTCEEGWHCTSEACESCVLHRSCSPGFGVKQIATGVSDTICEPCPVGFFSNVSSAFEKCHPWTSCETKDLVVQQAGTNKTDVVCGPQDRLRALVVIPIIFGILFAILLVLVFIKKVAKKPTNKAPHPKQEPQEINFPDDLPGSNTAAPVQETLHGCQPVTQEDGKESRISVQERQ

| Substance | uptake of fluorescent (FITC) peptide C into HEK293T-CD40 cells [1] | phosphorylated p38 in HEK293T-CD40 cells [2] | activation of p38 by Hsp70, nucleotide dependence ([2]; ADP versus AMPPNP, compared with same molar concentration of CD40 ligand) |
| --- | --- | --- | --- |
| N70: Recombinant N-terminal ATPase domain of human Hsp70, residues 5-381 (SEQ ID NO: 1) | did not result in a peptide signal above background | caused an increase in phosphorylated p38 to an extent comparable to that observed with DnaK | – |
| Hsp70: Recombinant human heat shock protein 70, expressed and purified as His-tagged protein | fluorescent peptide was observed in punctuate intracellular structures only in cells expressing CD40 | caused an increase in phosphorylated p38 to an extent comparable to that observed with DnaK | significant, and depended on the presence of ADP |
